From patent publication US11859229B2, “Polyvinyl alcohol-degrading enzyme and process for producing the same” (Hayashibara Co., Ltd., priority 2017, dated 2024) come the findings set out here.

Assay type in all cases: biochemical
Data set [1] in a line: Detection of β-diketone hydrolyzing activity (acetone from 2,4-pentanedione by gas chromatography). Also noted: key: Yes: Acetone, a product by the hydrolysis, was qualitatively detected. The following applies: qualitative. The source says:
As shown in the above (2), the PVA-degrading enzyme of the present invention has an activity of hydrolyzing […]-diketone, i.e., […]-diketone-hydrolyzing activity. Enzymes having β-diketone-hydrolyzing activity can hydrolyze an oxidized PVA having a […]-diketone structure (i.e., oxidized PVA). Beta-diketone-hydrolyzing activity can be detected by examining the activity of hydrolyzing 2, 4-pentanedione which is a model compound of oxidized PVA having a […]-diketone structure. Acetone and acetic acid are formed when a PVA-degrading enzyme hydrolyzes 2,4-pentanedione. Therefore, for example, […]-diketone-hydrolyzing activity can be detected by the following method using 2,4-pentanedione as a substrate.
2,4-Pentanedione (Reagent grade, commercialized by Wako Pure Chemical Industries Co., Ltd., Osaka, Japan) was added to 50 mM sodium phosphate buffer (pH 7.0) to give a concentration of 0.2% (w/v) to make into a substrate solution. To 1 mL of the substrate solution, 0.2 mL of enzyme solution and 0.8 mL of 50 mM sodium phosphate buffer (pH 7.0) were added and then the mixture was shaken at 27° C. for 3 hours for the reaction. After the reaction, 2 mL of the reaction mixture was withdrawn and put in a glass vial, and then the vial was sealed and heated at 95° C. for 40 min. […]

A short description of data set [2]: PVA-degrading (viscosity-reducing) activity. The following applies: at each purification step. The protocol:
While, activity as a PVA-degrading enzyme can be measured, for example, by measuring the viscosity reduction of a PVA solution, caused by the degradation of PVA, as an index using the following method.
To 0.5 mL of a substrate solution prepared by dissolving PVA (Reagent grade polyvinyl alcohol, polymerization degree: 2,000, Nacalai Tesque Inc., Kyoto, Japan) into 100 mM sodium phosphate buffer (pH 7.0) to give a concentration of 2% (w/v), 15 µL of 2% (w/v) of sodium azide solution was added, and then 0.5 mL of an enzyme solution is further added and reacted with shaking at 27° C. for 60 min. After the reaction, 0.6 mL of the reaction mixture was withdrawn and its viscosity was measured using a Cone plate-type viscometer (“DV-II+Pro”, Brookfield Co., Ltd.) at 30° C. Separately, the enzyme solution was added to the substrate solution and the viscosity was measured immediately, and the viscosity was used as that at zero-min reaction. The PVA-degrading activity was calculated based on the following formula. One unit of the PVA-degrading activity was defined as the amount of enzyme that causes a 10%-reduction of relative viscosity per min under the above conditions. […]

The nature of data set [3]: Thermal stability and pH stability (residual PVA-oxidizing activity). The protocol:
To 0.5 mL of a substrate solution prepared by dissolving PVA (Reagent grade polyvinyl alcohol, polymerization degree: 2,000, Nacalai Tesque Inc., Kyoto, Japan) into 100 mM sodium phosphate buffer (pH 7.0) to give a concentration of 2% (w/v), 15 µL of 2% (w/v) of sodium azide solution was added, and then 0.5 mL of an enzyme solution is further added and reacted with shaking at 27° C. for 60 min. After the 60 min-reaction, the reaction was stopped by mixing 0.32 mL of the reaction mixture to 0.8 mL of a titanium reagent, and the yellow color, produced by reacting hydrogen peroxide formed by the enzyme reaction and the titanium reagent, was measured by measuring the absorbance at 410 nm (A410) as an index. Separately, the enzyme solution was added to the substrate solution, and the resulting mixture is immediately mixed with the titanium reagent. The resulting mixture was similarly measured its color and the value was used as the value at the reaction zero minutes. Then, the amount of the formed hydrogen peroxide is determined and the PVA-oxidizing activity is calculated based on the following formula. It is known that the absorbance at 410 nm (A410) increases by “1” when 3.65 […]mole/mL of hydrogen peroxide is formed. […]
In the two purified preparations of the PVA-degrading enzyme, PVA-A was used for investigating thermal stability and pH stability using PVA-oxidizing activity as an index according to the assay method. Thermal stability was determined by the steps of incubating the enzyme solution (in 10 mM phosphate buffer, pH 7.0) at various temperature for 60 min, cooling in water, and then measuring the residual enzyme activity. pH Stability was determined by the steps of incubating the enzyme solution in 100 mM buffer with different pH at 4° C. for 24 hours, adjusting pH to 7.0, and then measuring the residual enzyme activity. […] In FIG. 6, symbols, “●”, “▪”, “▴” and “♦”, mean values measured by using acetate buffer, phosphate buffer, glycine-NaOH buffer, and potassium chloride-NaOH buffer, respectively, for pH control.

A short description of data set [4]: Optimum temperature and optimum pH of PVA-oxidizing activity. The protocol:
To 0.5 mL of a substrate solution prepared by dissolving PVA (Reagent grade polyvinyl alcohol, polymerization degree: 2,000, Nacalai Tesque Inc., Kyoto, Japan) into 100 mM sodium phosphate buffer (pH 7.0) to give a concentration of 2% (w/v), 15 µL of 2% (w/v) of sodium azide solution was added, and then 0.5 mL of an enzyme solution is further added and reacted with shaking at 27° C. for 60 min. After the 60 min-reaction, the reaction was stopped by mixing 0.32 mL of the reaction mixture to 0.8 mL of a titanium reagent, and the yellow color, produced by reacting hydrogen peroxide formed by the enzyme reaction and the titanium reagent, was measured by measuring the absorbance at 410 nm (A410) as an index. Separately, the enzyme solution was added to the substrate solution, and the resulting mixture is immediately mixed with the titanium reagent. The resulting mixture was similarly measured its color and the value was used as the value at the reaction zero minutes. Then, the amount of the formed hydrogen peroxide is determined and the PVA-oxidizing activity is calculated based on the following formula. It is known that the absorbance at 410 nm (A410) increases by “1” when 3.65 […]mole/mL of hydrogen peroxide is formed. Therefore, in the following Formula 1, the coefficient of “3.65” has been multiplied. […]

The nature of data set [5]: Assay for PVA-oxidizing activity (hydrogen peroxide formation, titanium reagent, A410). On the procedure: As shown in the above (1), the PVA-degrading enzyme of the present invention has an PVA-oxidizing activity, i.e., an activity of catalyzing the reaction of oxidizing PVA as substrate and forming hydrogen peroxide. For example, the PVA-oxidizing activity can be measured by the following method.
To 0.5 mL of a substrate solution prepared by dissolving PVA (Reagent grade polyvinyl alcohol, polymerization degree: 2,000, Nacalai Tesque Inc., Kyoto, Japan) into 100 mM sodium phosphate buffer (pH 7.0) to give a concentration of 2% (w/v), 15 µL of 2% (w/v) of sodium azide solution was added, and then 0.5 mL of an enzyme solution is further added and reacted with shaking at 27° C. for 60 min. After the 60 min-reaction, the reaction was stopped by mixing 0.32 mL of the reaction mixture to 0.8 mL of a titanium reagent, and the yellow color, produced by reacting hydrogen peroxide formed by the enzyme reaction and the titanium reagent, was measured by measuring the absorbance at 410 nm (A410) as an index. Separately, the enzyme solution was added to the substrate solution, and the resulting mixture is immediately mixed with the titanium reagent. The resulting mixture was similarly measured its color and the value was used as the value at the reaction zero minutes. Then, the amount of the formed hydrogen peroxide is determined and the PVA-oxidizing activity is calculated based on the following formula. It is known that the absorbance at 410 nm (A410) increases by “1” when 3.65 […]mole/mL of hydrogen peroxide is formed. Therefore, in the following Formula 1, the coefficient of “3.65” has been multiplied. One unit of the PVA-oxidizing activity is defined as the amount of enzyme that forms 1 […]mole of hydrogen peroxide per min under the above conditions. Titanium reagent is prepared by diluting 5% titanium sulfate (IV) solution, commercialized by Nacalai Tesque Inc., Kyoto, Japan, 25-fold with 10% (w/w) sulfuric acid.

B1: PVA-B: purified PVA-degrading hybrid enzyme from Pseudomonas sp. VT1B strain, amino acid sequence of SEQ ID NO: 3 (protein, listed as Pseudomonas sp.)
chain: AENWPMFGKNYENSRATADTQLSTSNISSLNVVRRTADGGITGTPTVVDGVAYYSDFSGYVKAVRVNDGAVLWRVRPQTTMLSPSPFVTDDTVYVAGNNSYVYALNRLDGAVRWTTQIETSPNSRISSSPIVVDNILMIGTGSYQVFIPATPMFRGRVVFLNATTGAILPYSTNMCPEGLCGGGISVWSTAAVDVSTRTGYIGTGQAYRDPAGPYSDSLVAFDIDTGAIRWSQQFLANDVYQLGGVLRYDYDVGAAPNLFVADERRMVGVGGKDGTYRAFDRDTGAPIWTTPVGRGSPIGGVMQSTAYGDGRIYVTSNTSTIGGGRNDPVPATAEALALDAATGTPVWIRQLDAGGFGGVAYANGLMYASVWDGRMRVFNAANGNIVKEVQVSPSRGVYVAAPTDGFPNGSAGGPIVYGNRVLMGYGWTWVLNISGGLATMELVSGGGETQTVTLASNQDTYVQSGTPTTSYNANEFLLARLADAEGLTRASFLQFPLTAIPAGTITSARLRLYGRHDAPTGTGQPVSVWPGTFTTPWNGADVIYNNSDLVTGVNFYLTSPIANALIGITPQYYEWDVTGYVDSRRALGHATFGVAVDYGHLYRVTFNSADNAANRPELVVAVSTGGTSEPDPELPPGSMEGSCPAGFTPRAGVNQGFIHNGVARGFVLNVPANVSTPRPMFVSLTGSVESTNENLGPRGGAGALTNDGFLVIGPVRRCAGQDPNGSGTSVGGGTCNQPGTGGWNWNPWNEGRAFGAAGDQWKTAEGPDSEFLESVARCVAKRFPVDSKRMYLGGISSGGTLTNRALLFNSDFWAGGLPISGEWYVTRDDGTAYPGPDEFAARRQAVIDDPTKIFQGRVGPLPLRSTLDPMIVITVWGGTNDVWSCDGVTLCADYRPSTQVASNYFSAQPNVVHVACSSSHGHQWPTINRAAFNTWAATTLASHPKGTPASAFVLPPPPAGYTCRIGPYIDHYERACSVDGDGDIDRNDIAVITAARNQPASGPTDLRDVDRSGVIDVNDARACTLRCDRPNCAVQ
With B1, the “2,4-Pentanedione-Degrading Activity” value in data set [1] is recorded as “Yes*”. The “Total PVA-Degrading Activity (Viscosity-reducing Activity)” value in data set [2] turned out to be 8.4 U. Moreover, the “Thermal stability of PVA-oxidizing activity” value in data set [3] (10 mM phosphate buffer, pH 7.0, 60 min) is recorded as “almost the same”. The “pH stability of PVA-oxidizing activity” value in data set [3] (100 mM buffer, 4° C. for 24 hours) is given as “almost the same”. In addition, in data set [4] (60 min-reaction at 27° C.), the “Optimum pH of PVA-oxidizing activity” value is “almost the same”. The “Optimum temperature of PVA-oxidizing activity” value in data set [4] (60 min-reaction at pH 7.0) is “almost the same”. For the same molecule, the Specific activity in data set [5] (PVA-oxidizing activity per mg protein at each purification step) came to 1.9 U/mg. Further, the “Total Activity (PVA-oxidizing activity)” value in data set [5] (at each purification step, from 4 L culture supernatant) was found to be 3.3 U.
